In patent US20220016183A1, “EXOSOME AND VARIOUS USES THEREOF” (PROSTEMICS CO., LTD., priority 2018, published 2022):

Assays:
human fibroblasts (HDF) = assay: Skin fibroblast (HDF) proliferation; format: cell-based; conditions: 500 ng/ml, 48 hours, DMEM 1% FBS
Protocol: (§1) After 48 hours, a change in cell viability was measured, and results thereof are shown in Tables 8 and 9 below and FIGS. 9 and 10.

keratinocytes (HaCaT) = assay: Keratinocyte (HaCaT) proliferation; format: cell-based, human; conditions: 500 ng/ml, 48 hours, DMEM 1% FBS
Protocol: as §1

[1] = tested on: adipose-derived stem cells (ASC); assay: Adipose-derived stem cell (ASC) proliferation, CCK-8; format: cell-based; conditions: positive control of Table 10 (FBS, 10 wt. % in medium), 24 hours
Protocol: Adipocytes derived stem cells (ADCs) were cultured in DMEM medium (Invitrogen) containing 10% fetal calf serum and 1% penicillin/streptomycin at 37° C. and 5% CO2 conditions, and the medium was changed every 3 days. After culturing for 24 hours, the cells were treated under the conditions shown in Table 10 below, and further cultured for 24 hours. After removing the treated material from each cell and dispensing the CCK-8 solution thereto, the cells were incubated at 37° C. in a CO2 incubator for 2 hours, and absorbance was measured at 450 nm.

B1: E1: EGF, positive control at 500 ng/ml (protein, UniProt P01133 23-1207, looked up)
Pro-epidermal growth factor: PQHWSCPEGTLAGNGNSTCVGPAPFLIFSHGNSIFRIDTEGTNYEQLVVDAGVSVIMDFHYNEKRIYWVDLERQLLQRVFLNGSRQERVCNIEKNVSGMAINWINEEVIWSNQQEGIITVTDMKGNNSHILLSALKYPANVAVDPVERFIFWSSEVAGSLYRADLDGVGVKALLETSEKITAVSLDVLDKRLFWIQYNREGSNSLICSCDYDGGSVHISKHPTQHNLFAMSLFGDRIFYSTWKMKTIWIANKHTGKDMVRINLHSSFVPLGELKVVHPLAQPKAEDDTWEPEQKLCKLRKGNCSSTVCGQDLQSHLCMCAEGYALSRDRKYCEDVNECAFWNHGCTLGCKNTPGSYYCTCPVGFVLLPDGKRCHQLVSCPRNVSECSHDCVLTSEGPLCFCPEGSVLERDGKTCSGCSSPDNGGCSQLCVPLSPVSWECDCFPGYDLQLDEKSCAASGPQPFLLFANSQDIRHMHFDGTDYGTLLSQQMGMVYALDHDPVENKIYFAHTALKWIERANMDGSQRERLIEEGVDVPEGLAVDWIGRRFYWTDRGKSLIGRSDLNGKRSKIITKENISQPRGIAVHPMAKRLFWTDTGINPRIESSSLQGLGRLVIASSDLIWPSGITIDFLTDKLYWCDAKQSVIEMANLDGSKRRRLTQNDVGHPFAVAVFEDYVWFSDWAMPSVMRVNKRTGKDRVRLQGSMLKPSSLVVVHPLAKPGADPCLYQNGGCEHICKKRLGTAWCSCREGFMKASDGKTCLALDGHQLLAGGEVDLKNQVTPLDILSKTRVSEDNITESQHMLVAEIMVSDQDDCAPVGCSMYARCISEGEDATCQCLKGFAGDGKLCSDIDECEMGVPVCPPASSKCINTEGGYVCRCSEGYQGDGIHCLDIDECQLGEHSCGENASCTNTEGGYTCMCAGRLSEPGLICPDSTPPPHLREDDHHYSVRNSDSECPLSHDGYCLHDGVCMYIEALDKYACNCVVGYIGERCQYRDLKWWELRHAGHGQQQKVIVVAVCVVVLVMLLLLSLWGAHYYRTQKLLSKNPKNPYEESSRDVRSRRPADTEDGMSSCPQPWFVVIKEHQDLKNGGQPVAGEDGQAADGSMQPTSWRQEPQLCGMGTEQGCWIPVSSDKGSCPQVMERSFHMPSYGTQTLEGGVEKPHSLLSANPLWQQRALDPPHQMELTQ
modifications: Pro-epidermal growth factor
notes: EGF, positive control at 500 ng/ml
HDF proliferation rate (%) (human fibroblasts (HDF)): 143.04% | HaCaT proliferation rate (%) (keratinocytes (HaCaT)): 160.38% | ASC proliferation rate (%) [1]: 186.10%
